# Laboratory results: patent US20240352438A1, “MEANS AND METHODS FOR DETOXIFYING OCHRATOXIN A” (DSM Austria GmbH, priority 2021, published 2024)
# Numbering of substitutions follows the chain as printed.
# B1: 203 (protein)
# chain: MTTRTRILTAFLSLLAANACAADAAPAAPHTVVLRAARMFDGASGKLVDHPQLTIVGNKIVRIAQGDKAEVPAGAEVVDLGDATLLPGFIDAHVHLSGQSSDNWYGDFFDNMMRFPAEQALYGAYYARITLEAGFTSVRDVGSTDWVALGLRNAIDAGKVPGPRMLVSNYAVGSTGGHADQDPIPPHKLPLAGPLQGVCNGPEECRAAVRYQIKYGANVIKFMPSGGVLSLSDPVDAPELSQDEMNAVIGESHAWGRKVAAHAHGDKAAKMAVAAGVDSIEHGSFIEDDTLRAMKAKNVYLVPTISAIAHVEEKIGTFPPVMAEKGRAAAAHLRQTFRHAVQIGVPIALGTDAGVGAHGSNAREFRYMVENGLTPAQALLAGTANAARLLGTFDRVGTLEAGKLADVVAVPGNPIADITVTERPLFVMKDGVVVRRDAVR
# modifications: exemplary polypeptide
# B2: 218 (protein)
# chain: B1 chain with H187D, M322I
# modifications: exemplary polypeptide
# B3: 213 (protein)
# chain: B1 chain with S100D, M322I
# modifications: exemplary polypeptide
# B4: 219 (protein)
# chain: B1 chain with H187E, M322I
# modifications: exemplary polypeptide
# B5: 206 (protein)
# chain: B1 chain with H30E, M322I
# modifications: exemplary polypeptide
# B6: 234 (protein)
# chain: B1 chain with H253A, M322I
# modifications: exemplary polypeptide
# B7: 214 (protein)
# chain: B1 chain with N103D, M322I
# modifications: exemplary polypeptide
# B8: 210 (protein)
# chain: B1 chain with H50D, M322I
# modifications: exemplary polypeptide
# B9: 209 (protein)
# chain: B1 chain with H30R, M322I
# modifications: exemplary polypeptide
# B10: 208 (protein)
# chain: B1 chain with H30P, M322I
# modifications: exemplary polypeptide
# B11: 240 (protein)
# chain: B1 chain with H310E, M322I
# modifications: exemplary polypeptide
# B12: 224 (protein)
# chain: B1 chain with K188R, M322I
# modifications: exemplary polypeptide
# B13: 207 (protein)
# chain: B1 chain with H30K, M322I
# modifications: exemplary polypeptide
# B14: 211 (protein)
# chain: B1 chain with H50N, M322I
# modifications: exemplary polypeptide
# B15: 239 (protein)
# chain: B1 chain with H310D, M322I
# modifications: exemplary polypeptide
# B16: 217 (protein)
# chain: B1 chain with T130E, M322I
# modifications: exemplary polypeptide
# B17: 225 (protein)
# chain: B1 chain with G226A, M322I
# modifications: exemplary polypeptide
# B18: 220 (protein)
# chain: B1 chain with H187G, M322I
# modifications: exemplary polypeptide
# B19: 235 (protein)
# chain: B1 chain with H253N, M322I
# modifications: exemplary polypeptide
# B20: 231 (protein)
# chain: B1 chain with D233N, M322I
# modifications: exemplary polypeptide
# B21: 230 (protein)
# chain: B1 chain with S230T, M322I
# modifications: exemplary polypeptide
# B22: 238 (protein)
# chain: B1 chain with S284T, M322I
# modifications: exemplary polypeptide
# B23: 227 (protein)
# chain: B1 chain with G226S, M322I
# modifications: exemplary polypeptide
# B24: 237 (protein)
# chain: B1 chain with S284H, M322I
# modifications: exemplary polypeptide
# B25: 216 (protein)
# chain: B1 chain with N103Q, M322I
# modifications: exemplary polypeptide
# Test: Enzymatic activity comparison: activity remaining after 65° C. for 10 min at pH 6.0, relative to SEQ ID NO: 1
# Type: physicochemical
# Details: not given
# Procedure: To compare the temperature behavior and thermostability of selected enzymes to one another, enzyme was incubated at 65° C. for 10 min at pH 6.0. The enzymatic activity remaining after incubation was compared to the remaining activity of the enzyme of SEQ ID NO: 1 after incubation, the latter being set to 100%, see Table 16.
row,Molecule,"Enzymatic activity remaining after incubation, compared to SEQ ID NO: 1 (set to 100%) [%]"
1,B1,10
2,B2,28
3,B3,25
4,B4,38
5,B5,42
6,B6,50
7,B7,59
8,B8,39
9,B9,31
10,B10,35
11,B11,44
12,B12,40
13,B13,37
14,B14,34
15,B15,30
16,B16,36
17,B17,84
18,B18,22
19,B19,56
20,B20,75
21,B21,32
22,B22,24
23,B23,24
24,B24,14
25,B25,14

# Test: OTA detoxification activity assay (specific activity, fluorescence reduction ex/em 390/450 nm)
# Type: biochemical
# Details: pH 6.0; SEQ ID NO: 1 = 100%
# In short: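 Recombinant enzyme preparation with 200 ng/mL OTA in 100 mM sodium phosphate, at pH 6.0 and pH 7.5, 37° C. Degradation followed as the fall in fluorescence at ex/em 390/450 nm. Specific activity taken from the initial linear slope; one unit degrades 1 μmol OTA per min at a starting OTA of […].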
row,Molecule,"Specific OTA detoxification activities in % compared to the enzyme of SEQ ID NO: 1, pH 6.0 [%]"
1,B1,100
2,B2,104
3,B3,76
4,B4,87
5,B5,168
6,B6,23
7,B7,123
8,B8,93
9,B9,143
10,B10,135
11,B11,86
12,B12,169
13,B13,87
14,B14,121
15,B15,73
16,B16,153
17,B17,24
18,B18,85
19,B19,56
20,B20,20
21,B21,141
22,B22,151
23,B23,47
24,B24,49
25,B25,147

# Same assay, conditions: pH 7.5; SEQ ID NO: 1 = 100%
row,Molecule,"Specific OTA detoxification activities in % compared to the enzyme of SEQ ID NO: 1, pH 7.5 [%]"
1,B1,70
2,B2,101
3,B3,39
4,B4,88
5,B5,112
6,B6,13
7,B7,108
8,B8,102
9,B9,88
10,B10,108
11,B11,101
12,B12,132
13,B13,72
14,B14,111
15,B15,76
16,B16,139
17,B17,27
18,B18,83
19,B19,38
20,B20,22
21,B21,127
22,B22,97
23,B23,36
24,B24,26
25,B25,115
